Where no end group is shown, it is not given here.

In the first experiment the target is T1, TONSL ARD (amino acid 512-692 of TONSL of SEQ ID NO: 16) (Homo sapiens, UniProt Q96HA7).
T1 construct: GST (N, cleaved yes); made in house; host or cells: E. coli BL21(DE3)-RIL
T1 sequence (Q96HA7 512-692): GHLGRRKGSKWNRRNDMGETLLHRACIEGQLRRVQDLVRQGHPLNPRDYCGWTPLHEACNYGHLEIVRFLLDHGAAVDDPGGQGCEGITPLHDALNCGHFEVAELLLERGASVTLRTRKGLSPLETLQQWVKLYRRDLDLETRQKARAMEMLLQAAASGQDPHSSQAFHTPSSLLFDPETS
Kind of experiment: Native MS analysis of protein-peptide complexes. The experiment is classed as binding. Conditions: 10 μM TONSL-ARD, 50 mM NH4OAc pH 7.5. Here is the method:
Various peptides were obtained including the peptides described in Examples 11, 12, 13, 14 and 15. If the peptide was in the form of a trifluoroacetate salt (TFA salt), it was desalted on a polymeric weak cation exchange sorbent (Strata X-CW, Phenomenex, Sartrouville, France): Dry peptide (1-3 μmol) were solubilized in 200 μL pure water (Sigma-Aldrich, Lyon, France). The pH of the solution was adjusted to 7-7.5 by addition of 1 mM aqueous ammonium hydroxide solution (solution freshly prepared from 20% concentrated ammonium hydroxide). The exchange column was conditioned with 1 mL methanol (Sigma-Aldrich, Lyon, France) followed by 1 mL water. The solution was injected and the column was washed twice with 500 μL pure water. Finally the peptide was eluted by gravity with 2 times 500 μL of a 20:80:5 acetonitrile/water/formic acid mixture. The elution fraction containing the expected peptide was identified by mass spectrometry. The TFA-free solution was freeze-dried to get a white solid. The solid was dissolved in 300 μL pure water and the solution was freeze-dried for a second time.
A stock solution of the peptide was prepared by adding 300 μL of pure water to the resulting solid and the concentration of the solution was measured by UV at a wavelength of 205 nm. The extinction coefficient for the corresponding peptide sequence was calculated using the Nick Anthis online protein parameter calculator script (http://nickanthis.com/tools/a205.html). The absence of TFA adducts was confirmed by mass spectrometry with infusion of the protein-peptide mixture at low acceleration voltage (Vc 25 V) in native conditions.
Purified TONSL ARD (i.e. amino acid 512-692 of TONSL of SEQ ID NO: 16) was buffer exchanged against 500 mM NH4OAc pH 7.5 using a NAP 5 column (NAP™-5, GE Healthcare). Bradford protein quantitation was performed on buffer exchanged protein. […]
The mass spectrometry (MS) analysis were carried out on an electrospray time-of-flight mass spectrometer (LCT, Waters, Manchester, UK) equipped with an automated chip-based nanoESI device (Triversa Nanomate, Advion Biosciences, Ithaca, N.Y.). […] Mass spectra were recorded using reduced cone voltage (Vc=50 V) and elevated interface pressure (Pi=5 mbar) which correspond to fine-tuned instrumental settings providing sufficient ion desolvation while preserving the integrity of weak non-covalent complexes in the gas phase. […]
The proportion of 1:1 stoichiometry complex is calculated according to the following equation: […]
To estimate the binding affinities (Kd) of peptides for TONSL-ARD, a mixture of protein/peptide was analyzed at a constant peptide to protein ratio with decreasing protein concentration until the lowest detection limit was reached. […]
KGGAKRHRKVLR-NH2 [Example 13]: the “% P1L1 (proportion of 1:1 stoichiometry protein-peptide complex)” value is recorded as 89.9%.

With KGGAKRHAKVLR-NH2 [Example 14], the “% P1L1 (proportion of 1:1 stoichiometry protein-peptide complex)” value stood at 73.3%.

AKRHRKVLR-NH2 [Example 12]: the “% P1L1 (proportion of 1:1 stoichiometry protein-peptide complex)” value was found to be 62.6%.

For the substance KGGAARHRKVLR-NH2 [Example 15], the “% P1L1 (proportion of 1:1 stoichiometry protein-peptide complex)” value was 81.4%.

In another experiment the target is T2, TONSL ARD (Homo sapiens, UniProt Q96HA7).
T2 construct: GST (N); made in house; host or cells: E. coli BL21(DE3)-RIL
T2 sequence (Q96HA7 512-692): T1 sequence (Q96HA7 512-692)
Kind of experiment: ITC of TONSL ARD binding to histone peptides. Particulars: ITC (FIG. 13); for H4K20me1/2 also peptide pull-downs. The procedure: All the ITC titrations were performed on a Microcal ITC 200 calorimeter at 25° C. […] The exothermic heat of the reaction was measured by 17 sequential 2.2 μl injections of the peptides (1.41 mM in buffer 20 mM Tris pH 7.5 and 0.5 M NaCl) into 200 μl of the TONSL ARD solution (145 μM in the same buffer), spaced at intervals of 150 s. The data were processed with Microcal Origin software and the curves were fit to a single […] binding model.
Regarding “H4 tail (9-25): unmodified histone H4 peptide, residues 9-25 (KGLGKGGAKRHRKVLRD; listed as Homo sapiens)”, the “binding to TONSL ARD” value was “can bind TONSL ARD”.

As to “H18W: histone H4 (residues 9-25) peptide with His18 mutated to Trp18 (GLGKGGAKRWRKVLRDN) [Example H18W]”, the “binding to TONSL ARD” value is listed as “totally disrupts binding with TONSL ARD”.

Turning to “H4K20me1: histone H4 (residues 9-25) peptide with mono-methylation on Lys20 (GLGKGGAKRHRKVLRDN) [Example H4K20me1]”, the “binding to TONSL ARD” value was “incompatible with TONSL binding”.

“H4K20me2: histone H4 (residues 9-25) peptide with di-methylation on Lys20 (GLGKGGAKRHRKVLRDN) [Example H4K20me2]”: the “binding to TONSL ARD” value is recorded as “incompatible with TONSL binding”.

Another experiment has as its target T3, TONSL acidic stretch and ARD (450-692) (Homo sapiens, UniProt Q96HA7).
T3 construct: ITC analysis of TONSL acidic stretch and ARD (aa. 450-692); made in house; host or cells: E. coli BL21(DE3)-RIL
T3 sequence (Q96HA7 450-692): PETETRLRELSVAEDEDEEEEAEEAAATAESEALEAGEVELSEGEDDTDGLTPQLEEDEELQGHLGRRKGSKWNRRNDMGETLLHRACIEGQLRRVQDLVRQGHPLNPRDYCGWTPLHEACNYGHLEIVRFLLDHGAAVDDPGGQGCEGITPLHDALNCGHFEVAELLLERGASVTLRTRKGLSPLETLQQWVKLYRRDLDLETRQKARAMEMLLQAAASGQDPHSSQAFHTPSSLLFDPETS
Nature of the experiment: ITC analysis of TONSL acidic stretch and ARD with histone peptides. The experiment is classed as binding. Conditions: ITC (FIG. 35).
On to “H4 tail (9-25): unmodified histone H4 peptide, residues 9-25 (KGLGKGGAKRHRKVLRD; listed as Homo sapiens)”, for which the “binding to TONSL (450-692)” value is “recognizes”.

Turning to “H3K9me1 (1-21): histone H3K9me1 (aa. 1-21) peptide”, the “binding to TONSL (450-692)” value was “does not bind”.

Values taken from patent US10961289B2, “Small molecules blocking histone reader domains” (The University of Copenhagen, priority 2015, dated 2021).
